The text below walks through data of patent US20240287177A1 (Merck KGaA, published 2024).

Experiment [1] deals with NKp30 on human NK cells (human) (UniProt O14931). Description: cell-based or functional assay.
The target in experiment [2] is recombinant human NKp30 extracellular domain, his-tagged (human) (UniProt O14931). Description: BLI, SEEDbody on anti-human Fc sensors, soluble NKp30, 1:1 fit. A general note: In BLI a coated tip is dipped into the sample, and binding shifts an interference pattern.

B1: VHH11 SEEDbody eff- (bispecific antibody, part only; not given: silenced SEED Fc and cetuximab Fab, V domains shown, not shown: another chain or arm of the molecule; a dimerising Fc or GST; small tags and cut ends)
VHH: DVQLQESGGGLVQAGGSLRLSCAASGRTFSSDFMGWFRQAPGKEREFVAAIHWSGGSTSYADSVKGRFTISRDNAKDTVYLLMNSLKLEDTAVYYCAAEIRWLTTGWANLGSWGQGTQVTVSS
Broadly, the Kd is the constant that tells how readily two partners part at equilibrium. In general, koff refers to the rate constant with which the complex falls apart. A word on the kon: it is a measure of how fast the partners come together. In experiment [1], B1 came in with an EC50 (nM), MNC based killing of A431 cells, E:T 80:1 of 0.0111 nM and a Max. Killing (% Lysis), MNC based killing of A431 cells, E:T 80:1 of 50 % Lysis. Also, in experiment [2], the Kd was found to be 1.02 nM, the koff is 0.000415 s⁻¹ and the kon is 405000 M⁻¹ s⁻¹.

B2: VHH13 SEEDbody eff- (bispecific antibody, part only; not given: silenced SEED Fc and cetuximab Fab, V domains shown, not shown: another chain or arm of the molecule; a dimerising Fc or GST; small tags and cut ends)
VHH: DVQLQESGGGLAQPGGPLRLSCAASGRTFTSDFMGWFRQAPGKEREFVAAIHWSGGSRSYADSVKGRFTISRDNAKDTVYLLMNSLKLEDTAVYYCAAEIRWQTAGWVNLGSWGQGTQVTVSS
In experiment [1], B2 had an EC50 (nM), MNC based killing of A431 cells, E:T 80:1 of 0.00241 nM and a Max. Killing (% Lysis), MNC based killing of A431 cells, E:T 80:1 of 51 % Lysis. Moreover, in experiment [2], the dissociation constant (Kd) is 0.211 nM, the koff was 0.000162 s⁻¹ and the kon was 766000 M⁻¹ s⁻¹.

B3: VHH9 SEEDbody eff- (bispecific antibody, part only; not given: silenced SEED Fc and cetuximab Fab, V domains shown, not shown: another chain or arm of the molecule; a dimerising Fc or GST)
VHH: DVQLQESGGGLVQAGGSLRLSCAASGRGGASYAMGWFRQAPGKEREFVAAISWTGDTTYNVDSVKGRFTISSDNAKNPVYLDMSSLKPEDTAVYYCAAAHWTRVVAKGAMADEKKYEYWGQGTQVTVSS
In experiment [1], B3 yielded an EC50 (nM), MNC based killing of A431 cells, E:T 80:1 of 0.0161 nM and a Max. Killing (% Lysis), MNC based killing of A431 cells, E:T 80:1 of 53 % Lysis. For the same molecule, in experiment [2], the Kd amounted to 4.99 nM, the koff was determined as 0.00187 s⁻¹ and the association rate constant (kon) was determined as 376000 M⁻¹ s⁻¹.

B4: VHH6 SEEDbody eff- (bispecific antibody, part only; not given: silenced SEED Fc and cetuximab Fab, V domains shown, not shown: another chain or arm of the molecule; a dimerising Fc or GST; small tags and cut ends)
VHH: DVQLQESGGGLVQTGGSLRLSCAASGLPFSKYAIAWFRQAPGKESEFLVVVSWSGDKFYQDNMKGRCTISRDNAKNTAYLQINSLQPEDTAVYYCAASGSYPVTDRYFYNFWGQGTQVTVSS
In experiment [1], B4 returned an EC50 (nM), MNC based killing of A431 cells, E:T 80:1 of 1.43 nM and a Max. Killing (% Lysis), MNC based killing of A431 cells, E:T 80:1 of 42 % Lysis. In experiment [2], the Kd amounted to 292 nM, the koff is 0.129 s⁻¹ and the kon worked out at 442000 M⁻¹ s⁻¹.

B5: VHH16 SEEDbody eff- (bispecific antibody, part only; not given: silenced SEED Fc and cetuximab Fab, V domains shown, not shown: another chain or arm of the molecule; a dimerising Fc or GST; small tags and cut ends)
VHH: DVQLQESGGGLVQPGGSLRLSCTASGSIFSSLTMAWWRQAPGKQRELVAGITTDGSTDYADSVKGRFTISRDNAKNTVYLQMDSLKPEDTAVYYCNKSPYYDPTDYDSWGQGTQVTVSS
In experiment [1], B5 registered an EC50 (nM), MNC based killing of A431 cells, E:T 80:1 of 0.00128 nM; a Max. IFNγ release (pg/ml), NK cells with A431 cells of 515 pg/mL; a Max. Killing (% Lysis), MNC based killing of A431 cells, E:T 80:1 of 50 % Lysis; a Max. TNFα release (pg/ml), NK cells with A431 cells of 114 pg/mL. Further, in experiment [2], the Kd was 0.139 nM, the koff amounted to 9.28e-05 s⁻¹ and the kon is 666000 M⁻¹ s⁻¹.

B6: VHH5 SEEDbody eff- (bispecific antibody, part only; not given: silenced SEED Fc and cetuximab Fab, V domains shown, not shown: another chain or arm of the molecule; a dimerising Fc or GST; small tags and cut ends)
VHH: DVQLQESGGGLVQPGESLRLSCLVSGVTYHFYDITWFRQAPGLEREGVSCISYASGSTKFADSVKGRFTISRDNAKNAVYLQMNSLKPEDTAVYFCATQGSGSCSDFMSADSVLSWGQGTQVTVSS
Take B6: in experiment [1], the EC50 (nM), MNC based killing of A431 cells, E:T 80:1 was 0.00286 nM; the Max. IFNγ release (pg/ml), NK cells with A431 cells turned out to be 635 pg/mL; the Max. Killing (% Lysis), MNC based killing of A431 cells, E:T 80:1 worked out at 56 % Lysis; the Max. TNFα release (pg/ml), NK cells with A431 cells came out at 119 pg/mL. For the same molecule, in experiment [2], the Kd was 0.289 nM, the koff is 0.000186 s⁻¹ and the kon came out at 643000 M⁻¹ s⁻¹.

B7: VHH4 SEEDbody eff- (bispecific antibody, part only; not given: silenced SEED Fc and cetuximab Fab, V domains shown, not shown: another chain or arm of the molecule; a dimerising Fc or GST; small tags and cut ends)
VHH: DVQLQESGGGLVQPGESLRLSCLVSGVTYHFYDITWFRQAPGLEREGVSCISYASGSTKFADSVKGRFTISRDNAKNAVYLQMNSLKPEDTAVYFCAMQGSGSCSDFMSADSVLSWGQGTQVTVSS
As to B7, in experiment [1], the EC50 (nM), MNC based killing of A431 cells, E:T 80:1 came out at 0.00592 nM; the Max. IFNγ release (pg/ml), NK cells with A431 cells worked out at 560 pg/mL; the Max. Killing (% Lysis), MNC based killing of A431 cells, E:T 80:1 came to 55 % Lysis; the Max. TNFα release (pg/ml), NK cells with A431 cells came to 129 pg/mL. Moreover, in experiment [2], the Kd came out at 2.57 nM, the koff was 0.000218 s⁻¹ and the kon is 84800 M⁻¹ s⁻¹.

B8: VHH15 SEEDbody eff- (bispecific antibody, part only; not given: silenced SEED Fc and cetuximab Fab, V domains shown, not shown: another chain or arm of the molecule; a dimerising Fc or GST; small tags and cut ends)
VHH: DVQLQESGGGLVQAGGSLRLSCAVSGSTFRLNVMGWYRQAPGKLRDLVAGITADGGVTNYADSVKGRFIISRDNAKNTVYLQMNSLKPEDTAIYYCNTAPANWGSWGQGTQVTVSS
In experiment [1], B8 displayed an EC50 (nM), MNC based killing of A431 cells, E:T 80:1 of 0.0013 nM and a Max. Killing (% Lysis), MNC based killing of A431 cells, E:T 80:1 of 50 % Lysis. Also, in experiment [2], the Kd was < 0.001 nM, the koff is < 1e-07 s⁻¹ and the kon was found to be 440000 M⁻¹ s⁻¹.

B9: VHH7 SEEDbody eff- (bispecific antibody, part only; not given: silenced SEED Fc and cetuximab Fab, V domains shown, not shown: another chain or arm of the molecule; a dimerising Fc or GST; small tags and cut ends)
VHH: DVQLQESGGGLAQPGGSLRLSCAASGFTFSSYDMGWYRQVPGKECELVAAIFSAGGSTIYADSVKGRFTISRDNAKNTVFLQMNSLKPEDTAVYYCNKAPPFTTIQPTCVMIDTQLGAWGQGTQVTVSS
With B9, in experiment [1], the EC50 (nM), MNC based killing of A431 cells, E:T 80:1 was 0.0433 nM and the Max. Killing (% Lysis), MNC based killing of A431 cells, E:T 80:1 was determined as 49 % Lysis. Moreover, in experiment [2], the Kd was found to be 52.4 nM, the koff was 0.00352 s⁻¹ and the kon was found to be 67200 M⁻¹ s⁻¹.

B10: VHH8 SEEDbody eff- (bispecific antibody, part only; not given: silenced SEED Fc and cetuximab Fab, V domains shown, not shown: another chain or arm of the molecule; a dimerising Fc or GST; small tags and cut ends)
VHH: DVQLQESGGGLAQPGGSLRLSCAASGFTFSSYDMGWYRQAPGKECELVAAIFSADGSTIYADSVKGRFTISSDNAKNTVFLQMNSLKPEDTAVYYCNKAPPFTTIQPMCVMIDTQLGAWGQGTQVTVSS
In experiment [1], B10 gave an EC50 (nM), MNC based killing of A431 cells, E:T 80:1 of 0.00899 nM; a Max. IFNγ release (pg/ml), NK cells with A431 cells of 595 pg/mL; a Max. Killing (% Lysis), MNC based killing of A431 cells, E:T 80:1 of 50 % Lysis; a Max. TNFα release (pg/ml), NK cells with A431 cells of 109 pg/mL. In experiment [2], the Kd turned out to be 0.322 nM, the koff was 0.000134 s⁻¹ and the kon worked out at 416000 M⁻¹ s⁻¹.

B11: VHH10 SEEDbody eff- (bispecific antibody, part only; not given: silenced SEED Fc and cetuximab Fab, V domains shown, not shown: another chain or arm of the molecule; a dimerising Fc or GST; small tags and cut ends)
VHH: DVQLQESGGGSVQAGGSLRLSCAASGRTFSSNFMGWFRQAPNKDREFVAAIHWSGGSRAYADSVKGRFTISRDNTKDTVYLLVNSLKLEDTAVYYCAAEISWQTTGWTNLGSWGQGTQVTVSS
In experiment [1], B11 registered an EC50 (nM), MNC based killing of A431 cells, E:T 80:1 of 0.0146 nM and a Max. Killing (% Lysis), MNC based killing of A431 cells, E:T 80:1 of 51 % Lysis. In experiment [2], the Kd came to 0.253 nM, the koff came out at 8.75e-05 s⁻¹ and the on-rate constant (kon) came out at 346000 M⁻¹ s⁻¹.

B12: VHH12 SEEDbody eff- (bispecific antibody, part only; not given: silenced SEED Fc and cetuximab Fab, V domains shown, not shown: another chain or arm of the molecule; a dimerising Fc or GST; small tags and cut ends)
VHH: DVQLQESGGGLVQAGGSLRLSCAASGRTFSSDFMGWFRQAPGKEREFVAAIHWSGGSRSYADSVKGRFTISRDNAKDTVYLLMNSLKLEDTAVYYCAAEIRWQTTGWANLGSWGQGTQVTVSS
Regarding B12, in experiment [1], the EC50 (nM), MNC based killing of A431 cells, E:T 80:1 was found to be 0.00207 nM and the Max. Killing (% Lysis), MNC based killing of A431 cells, E:T 80:1 worked out at 49 % Lysis. In experiment [2], the dissociation constant Kd turned out to be 0.982 nM, the off-rate constant (koff) is 0.000898 s⁻¹ and the kon is 914000 M⁻¹ s⁻¹.

B13: VHH14 SEEDbody eff- (bispecific antibody, part only; not given: silenced SEED Fc and cetuximab Fab, V domains shown, not shown: another chain or arm of the molecule; a dimerising Fc or GST; small tags and cut ends)
VHH: DVQLQESGGGLVQPGGSLRLSCEASGVTFNFYSMTWYRQAPGKERELVADITSEGRTEYAHSVKGRFIISRDDFGTMVYLQMNSLKPEDTAVYYCYTGGSWGQGTQVTVSS
Consider B13, for which, in experiment [1], the EC50 (nM), MNC based killing of A431 cells, E:T 80:1 was determined as 0.00144 nM and the Max. Killing (% Lysis), MNC based killing of A431 cells, E:T 80:1 amounted to 51 % Lysis. In experiment [2], the Kd is 0.31 nM, the koff is 0.000144 s⁻¹ and the kon amounted to 464000 M⁻¹ s⁻¹.
